Measured values from paper PMC2597023 (Journal of cellular biochemistry, 2008).

Biological target: full-length human IGFN1 with an N-terminal c-myc tag (human, UniProt Q86VF2-2 1-868)
Assay: co-IP

fold of eEF1A1 immunoprecipitated against cells with the empty pCMV-myc vector: ~4 fold
B1: endogenous eEF1A1 of mouse C2C12 myoblasts (natural protein, mouse (endogenous in C2C12), UniProt P10126 1-462, looked up)
chain: MGKEKTHINIVVIGHVDSGKSTTTGHLIYKCGGIDKRTIEKFEKEAAEMGKGSFKYAWVLDKLKAERERGITIDISLWKFETSKYYVTIIDAPGHRDFIKNMITGTSQADCAVLIVAAGVGEFEAGISKNGQTREHALLAYTLGVKQLIVGVNKMDSTEPPYSQKRYEEIVKEVSTYIKKIGYNPDTVAFVPISGWNGDNMLEPSANMPWFKGWKVTRKDGSASGTTLLEALDCILPPTRPTDKPLRLPLQDVYKIGGIGTVPVGRVETGVLKPGMVVTFAPVNVTTEVKSVEMHHEALSEALPGDNVGFNVKNVSVKDVRRGNVAGDSKNDPPMEAAGFTAQVIILNHPGQISAGYAPVLDCHTAHIACKFAELKEKIDRRSGKKLEDGPKFLKSGDAAIVDMVPGKPMCVESFSDYPPLGRFAVRDMRQTVAVGVIKAVDKKAAGAGKVTKSAQKAQKAK
